Results taken from patent US20180169189A1 (AUTOLUS, published 2018).

Key:
[1] = target: T1, amino-terminal (endodomain) truncate of CD20 (human, UniProt P11836 42-297); assay: flow cytometry, transfected 293T cells
T1 construct: Expressed on transfected 293T cells, fused or co-expressed with eGFP (the text and the legend differ); As expressed in dCD20-FAS, the construct carries an extra N-terminal MG; also called dCD20
T1 sequence: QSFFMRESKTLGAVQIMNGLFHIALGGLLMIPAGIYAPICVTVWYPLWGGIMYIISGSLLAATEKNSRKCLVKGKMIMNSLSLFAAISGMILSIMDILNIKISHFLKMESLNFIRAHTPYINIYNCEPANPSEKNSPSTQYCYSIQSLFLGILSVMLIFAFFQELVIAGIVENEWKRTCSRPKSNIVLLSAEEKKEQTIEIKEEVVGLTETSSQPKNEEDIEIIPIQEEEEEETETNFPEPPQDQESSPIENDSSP
Source text: (§1) To this end: full-length CD20; an amino-terminal (endodomain) truncate of CD20; and a carboxy-terminal (endodomain) truncate of CD20 were each fused with eGFP.

[2] = target: T2, carboxy-terminal (endodomain) truncate of CD20 (human, UniProt P11836 2-236); assay: flow cytometry, transfected 293T cells
T2 construct: Expressed on transfected 293T cells, fused or co-expressed with eGFP (the text and the legend differ); also called CD20d
T2 sequence: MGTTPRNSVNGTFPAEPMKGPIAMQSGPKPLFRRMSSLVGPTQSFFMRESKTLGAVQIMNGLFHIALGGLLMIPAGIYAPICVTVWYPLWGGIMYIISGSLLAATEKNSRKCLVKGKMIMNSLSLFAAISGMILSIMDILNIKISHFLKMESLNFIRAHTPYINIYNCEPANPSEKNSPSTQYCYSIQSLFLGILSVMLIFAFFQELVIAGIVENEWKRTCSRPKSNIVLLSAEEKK
Source text: as §1

CD20-P172W = target: T3, CD20-P172W (human, UniProt P11836 1-297); assay: flow cytometry staining of transfected 293T cells
T3 construct: also called P172W mutated CD20
T3 sequence: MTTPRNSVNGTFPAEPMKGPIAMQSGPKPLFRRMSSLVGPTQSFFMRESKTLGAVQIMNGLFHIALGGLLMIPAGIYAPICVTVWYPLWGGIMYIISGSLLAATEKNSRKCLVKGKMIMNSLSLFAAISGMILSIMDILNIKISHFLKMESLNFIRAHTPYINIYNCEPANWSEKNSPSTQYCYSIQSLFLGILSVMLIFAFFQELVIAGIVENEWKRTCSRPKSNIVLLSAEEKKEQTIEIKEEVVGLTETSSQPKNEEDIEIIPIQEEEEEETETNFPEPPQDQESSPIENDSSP

B1: Rituximab (antibody, V domains shown)
VH: QVQLQQPGAELVKPGASVKMSCKASGYTFTSYNMHWVKQTPGRGLEWIGAIYPGNGDTSYNQKFKGKATLTADKSSSTAYMQLSSLTSEDSAVYYCARSTYYGGDWYFNVWGAGTTVTVS
VL: QIVLSQSPAILSASPGEKVTMTCRASSSVSYIHWFQQKPGSSPKPWIYATSNLASGVPVRFSGSGSGTSYSLTISRVEAEDAATYYCQQWTSNPPTFGGGTKLEIKR
notes: also called Rituxumab; Rituxan
- binding result [1]: binds
- binding result [2]: binds
- binding result (CD20-P172W): no binding
